Experiment [1] addresses T1, rat GITR extracellular domain (rat, UniProt F7FFS7 65-198).
T1 construct: also called rodent GITR
T1 sequence: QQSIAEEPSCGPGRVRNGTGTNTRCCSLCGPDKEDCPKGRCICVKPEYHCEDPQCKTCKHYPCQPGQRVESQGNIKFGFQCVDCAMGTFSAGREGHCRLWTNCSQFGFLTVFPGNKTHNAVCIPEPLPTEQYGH
The experiment is described as follows: ELISA on coated GITR ECD. The protocol:
(§1) The plate was blocked with a solution of 1% BSA in PBS for one hour at room temperature and then rinsed three times with PBST. The MAB was then diluted to 0.5 μg/mL or 1 μg/mL in PBS and 20 μL was added to each well. The plate was incubated for 1 hour at room temperature and then washed three times with PBST. […] The plate was incubated for 1 hour at room temperature, and then washed six times with PBST. 25 μL of SureBlue TMB (KPL 52-00-02) substrate was added to each well and the plate was incubated for about 10 min at room temperature.
(An ELISA detects its analyte on a solid surface through an enzyme-linked reagent.)

In experiment [2] the target is T2, mouse GITR extracellular domain (mouse, UniProt O35714 20-153).
T2 construct: extracellular domain; also called murine GITR; rodent GITR
T2 sequence (looked up): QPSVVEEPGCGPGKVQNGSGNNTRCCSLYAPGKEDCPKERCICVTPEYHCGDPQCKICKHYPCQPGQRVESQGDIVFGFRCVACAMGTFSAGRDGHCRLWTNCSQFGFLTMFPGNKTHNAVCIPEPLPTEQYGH
The experiment is described as follows: ELISA on coated GITR ECD. As to the method: as §1

Residue numbers refer to the chain shown, from its start.

B1: MAB4 (IgG1 kappa) (antibody, V domains shown)
VH: EVQLVESGGGLVQSGGSLRLSCAASGFSLSSYGVDWVRQAPGKGLEWVGVIWGGGGTYYASSLMGRFTISRDNSKNTLYLQMNSLRAEDTAVYYCAKHAYGHDGGFAMDYWGQGTLVTVSS
VL: EIVMTQSPATLSVSPGERATLSCRASESVSSNVAWYQQRPGQAPRLLIYGASNRATGIPARFSGSGSGTDFTLTISRLEPEDFAVYYCGQSYSYPFTFGQGTKLEIKR
Turning to B1, the binding result in experiment [1] and in experiment [2] was “no binding (tested: not on the sheet; paragraph 336: 0.5 or 1 µg/mL)” throughout.

B2: MAB5 (IgG1 kappa) (antibody, V domains shown)
VH: B1 VH with V48L, A60T
VL: B1 VL
notes: also called MABS (misprint of MAB5)
Regarding B2, the binding result in experiment [1] and in experiment [2] was “no binding (tested: not on the sheet; paragraph 336: 0.5 or 1 µg/mL)” each time.

Source of the values: patent publication US20170306037A1 (Novartis, published 2017).
